Patent US11833164B2, “Methods of treating Fabry disease in patients having a mutation in the GLA gene” (Amicus Therapeutics, Inc., priority 2019, dated 2023)

System: mutant form of α-Gal A expressed in HEK-293 cells
Assay: HEK assay (GLP HEK / Migalastat Amenability Assay): α-Gal A activity in lysates of transiently transfected HEK-293 cells incubated with or without 10 μM migalastat
Assay type: cell-based, human
Details: for Absolute increase (% WT) / Relative increase: 10 μM migalastat versus baseline; for Baseline α-Gal A activity (% WT): absence of migalastat; for Baseline α-Gal A activity (% WT) / 10 μM migalastat α-Gal A activity (% WT): percentage of baseline wild-type α-Gal A activity; for Baseline α-Gal A activity (% WT) / Baseline α-Gal A activity / 10 μM migalastat α-Gal A activity / 10 μM migalastat α-Gal A activity (% WT): mean ± SEM; for Baseline α-Gal A activity / 10 μM migalastat α-Gal A activity: lysates of HEK-293 cells transiently transfected with the mutant form; for Baseline α-Gal A activity: incubated 5 days in absence of migalastat; for 10 μM migalastat α-Gal A activity: incubated 5 days with 10 μM migalastat; for 10 μM migalastat α-Gal A activity (% WT): with 10 μM migalastat, 5 days
Method in brief: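 HEK-293 cells transiently transfected with mutant α-Gal A and incubated with or without 10 μM migalastat; lysate activity given as nmol free 4-MU released per mg protein per hour. Values are mean±SEM.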

| Molecule | Absolute increase (% WT) | Relative increase | Baseline α-Gal A activity (% WT) | Baseline α-Gal A activity [nmol/mg/h] | 10 μM migalastat α-Gal A activity [nmol/mg/h] | 10 μM migalastat α-Gal A activity (% WT) |
| --- | --- | --- | --- | --- | --- | --- |
| A291G (protein) MQLRNPELHLGCALALRFLALVSWDIPGARALDNGLARTPTMGWLHWERFMCNLDCQEEPDSCISEKLFMEMAELMVSEGWKDAGYEYLCIDDCWMAPQRDSEGRLQADPQRFPHGIRQLANYVHSKGLKLGIYADVGNKTCAGFPGSFGYYDIDAQTFADWGVDLLKFDGCYCDSLENLADGYKHMSLALNRTGRSIVYSCEWPLYMWPFQKPNYTEIRQYCNHWRNFADIDDSWKSIKSILDWTSFNQERIVDVAGPGGWNDPDMLVIGNFGLSWNQQVTQMALWAIMGAPLFMSNDLRHISPQAKALLQDKDVIAINQDPLGKQGYQLRQGDNFEVWERPLSGLAWAVAMINRQEIGGPRSYTIAVASLGKGVACNPACFITQLLPVKRKLGFYEWTSRLRSHINPTGTVLLQLENTMQMSLKDLL | 34.9 | 2.3 | 26.6 ± 1.5 | 6953 ± 474 | 16073 ± 954 | 61.5 ± 2.6 |
| L294F (protein) MQLRNPELHLGCALALRFLALVSWDIPGARALDNGLARTPTMGWLHWERFMCNLDCQEEPDSCISEKLFMEMAELMVSEGWKDAGYEYLCIDDCWMAPQRDSEGRLQADPQRFPHGIRQLANYVHSKGLKLGIYADVGNKTCAGFPGSFGYYDIDAQTFADWGVDLLKFDGCYCDSLENLADGYKHMSLALNRTGRSIVYSCEWPLYMWPFQKPNYTEIRQYCNHWRNFADIDDSWKSIKSILDWTSFNQERIVDVAGPGGWNDPDMLVIGNFGLSWNQQVTQMALWAIMAAPFFMSNDLRHISPQAKALLQDKDVIAINQDPLGKQGYQLRQGDNFEVWERPLSGLAWAVAMINRQEIGGPRSYTIAVASLGKGVACNPACFITQLLPVKRKLGFYEWTSRLRSHINPTGTVLLQLENTMQMSLKDLL | 38.8 | 2.3 | 29.6 ± 3 | 10147 ± 971 | 23486 ± 2100 | 68.4 ± 6.5 |
| F295V (protein) MQLRNPELHLGCALALRFLALVSWDIPGARALDNGLARTPTMGWLHWERFMCNLDCQEEPDSCISEKLFMEMAELMVSEGWKDAGYEYLCIDDCWMAPQRDSEGRLQADPQRFPHGIRQLANYVHSKGLKLGIYADVGNKTCAGFPGSFGYYDIDAQTFADWGVDLLKFDGCYCDSLENLADGYKHMSLALNRTGRSIVYSCEWPLYMWPFQKPNYTEIRQYCNHWRNFADIDDSWKSIKSILDWTSFNQERIVDVAGPGGWNDPDMLVIGNFGLSWNQQVTQMALWAIMAAPLVMSNDLRHISPQAKALLQDKDVIAINQDPLGKQGYQLRQGDNFEVWERPLSGLAWAVAMINRQEIGGPRSYTIAVASLGKGVACNPACFITQLLPVKRKLGFYEWTSRLRSHINPTGTVLLQLENTMQMSLKDLL | 48.0 | 1.7 | 73.4 ± 5.7 | 24973 ± 1752 | 41782 ± 2877 | 121.5 ± 7.7 |
| L294I (protein) MQLRNPELHLGCALALRFLALVSWDIPGARALDNGLARTPTMGWLHWERFMCNLDCQEEPDSCISEKLFMEMAELMVSEGWKDAGYEYLCIDDCWMAPQRDSEGRLQADPQRFPHGIRQLANYVHSKGLKLGIYADVGNKTCAGFPGSFGYYDIDAQTFADWGVDLLKFDGCYCDSLENLADGYKHMSLALNRTGRSIVYSCEWPLYMWPFQKPNYTEIRQYCNHWRNFADIDDSWKSIKSILDWTSFNQERIVDVAGPGGWNDPDMLVIGNFGLSWNQQVTQMALWAIMAAPIFMSNDLRHISPQAKALLQDKDVIAINQDPLGKQGYQLRQGDNFEVWERPLSGLAWAVAMINRQEIGGPRSYTIAVASLGKGVACNPACFITQLLPVKRKLGFYEWTSRLRSHINPTGTVLLQLENTMQMSLKDLL | 53.6 | 3.2 | 24.8 ± 2.4 | 8345 ± 717 | 26761 ± 1915 | 78.4 ± 6 |
| F295S (protein) MQLRNPELHLGCALALRFLALVSWDIPGARALDNGLARTPTMGWLHWERFMCNLDCQEEPDSCISEKLFMEMAELMVSEGWKDAGYEYLCIDDCWMAPQRDSEGRLQADPQRFPHGIRQLANYVHSKGLKLGIYADVGNKTCAGFPGSFGYYDIDAQTFADWGVDLLKFDGCYCDSLENLADGYKHMSLALNRTGRSIVYSCEWPLYMWPFQKPNYTEIRQYCNHWRNFADIDDSWKSIKSILDWTSFNQERIVDVAGPGGWNDPDMLVIGNFGLSWNQQVTQMALWAIMAAPLSMSNDLRHISPQAKALLQDKDVIAINQDPLGKQGYQLRQGDNFEVWERPLSGLAWAVAMINRQEIGGPRSYTIAVASLGKGVACNPACFITQLLPVKRKLGFYEWTSRLRSHINPTGTVLLQLENTMQMSLKDLL | 10.5 | 16.8 | 0.6 ± 0.1 | 230 ± 45 | 3847 ± 309 | 11.1 ± 0.9 |
| F295I (protein) MQLRNPELHLGCALALRFLALVSWDIPGARALDNGLARTPTMGWLHWERFMCNLDCQEEPDSCISEKLFMEMAELMVSEGWKDAGYEYLCIDDCWMAPQRDSEGRLQADPQRFPHGIRQLANYVHSKGLKLGIYADVGNKTCAGFPGSFGYYDIDAQTFADWGVDLLKFDGCYCDSLENLADGYKHMSLALNRTGRSIVYSCEWPLYMWPFQKPNYTEIRQYCNHWRNFADIDDSWKSIKSILDWTSFNQERIVDVAGPGGWNDPDMLVIGNFGLSWNQQVTQMALWAIMAAPLIMSNDLRHISPQAKALLQDKDVIAINQDPLGKQGYQLRQGDNFEVWERPLSGLAWAVAMINRQEIGGPRSYTIAVASLGKGVACNPACFITQLLPVKRKLGFYEWTSRLRSHINPTGTVLLQLENTMQMSLKDLL | 25.7 | 1.3 | 78.3 ± 4.5 | 26687 ± 1470 | 35634 ± 2203 | 104.1 ± 6.6 |
| L294V (protein) MQLRNPELHLGCALALRFLALVSWDIPGARALDNGLARTPTMGWLHWERFMCNLDCQEEPDSCISEKLFMEMAELMVSEGWKDAGYEYLCIDDCWMAPQRDSEGRLQADPQRFPHGIRQLANYVHSKGLKLGIYADVGNKTCAGFPGSFGYYDIDAQTFADWGVDLLKFDGCYCDSLENLADGYKHMSLALNRTGRSIVYSCEWPLYMWPFQKPNYTEIRQYCNHWRNFADIDDSWKSIKSILDWTSFNQERIVDVAGPGGWNDPDMLVIGNFGLSWNQQVTQMALWAIMAAPVFMSNDLRHISPQAKALLQDKDVIAINQDPLGKQGYQLRQGDNFEVWERPLSGLAWAVAMINRQEIGGPRSYTIAVASLGKGVACNPACFITQLLPVKRKLGFYEWTSRLRSHINPTGTVLLQLENTMQMSLKDLL | 33.8 | 9.0 | 4.4 ± 0.3 | 1452 ± 71 | 13038 ± 880 | 38.2 ± 2.7 |
| A292G (protein) MQLRNPELHLGCALALRFLALVSWDIPGARALDNGLARTPTMGWLHWERFMCNLDCQEEPDSCISEKLFMEMAELMVSEGWKDAGYEYLCIDDCWMAPQRDSEGRLQADPQRFPHGIRQLANYVHSKGLKLGIYADVGNKTCAGFPGSFGYYDIDAQTFADWGVDLLKFDGCYCDSLENLADGYKHMSLALNRTGRSIVYSCEWPLYMWPFQKPNYTEIRQYCNHWRNFADIDDSWKSIKSILDWTSFNQERIVDVAGPGGWNDPDMLVIGNFGLSWNQQVTQMALWAIMAGPLFMSNDLRHISPQAKALLQDKDVIAINQDPLGKQGYQLRQGDNFEVWERPLSGLAWAVAMINRQEIGGPRSYTIAVASLGKGVACNPACFITQLLPVKRKLGFYEWTSRLRSHINPTGTVLLQLENTMQMSLKDLL | 24.3 | 1.6 | 41.1 ± 2.2 | 12091 ± 652 | 19406 ± 1361 | 65.3 ± 4 |
| A292S (protein) MQLRNPELHLGCALALRFLALVSWDIPGARALDNGLARTPTMGWLHWERFMCNLDCQEEPDSCISEKLFMEMAELMVSEGWKDAGYEYLCIDDCWMAPQRDSEGRLQADPQRFPHGIRQLANYVHSKGLKLGIYADVGNKTCAGFPGSFGYYDIDAQTFADWGVDLLKFDGCYCDSLENLADGYKHMSLALNRTGRSIVYSCEWPLYMWPFQKPNYTEIRQYCNHWRNFADIDDSWKSIKSILDWTSFNQERIVDVAGPGGWNDPDMLVIGNFGLSWNQQVTQMALWAIMASPLFMSNDLRHISPQAKALLQDKDVIAINQDPLGKQGYQLRQGDNFEVWERPLSGLAWAVAMINRQEIGGPRSYTIAVASLGKGVACNPACFITQLLPVKRKLGFYEWTSRLRSHINPTGTVLLQLENTMQMSLKDLL | 21.3 | 1.3 | 68.6 ± 2.9 | 18002 ± 1127 | 23779 ± 1584 | 89.9 ± 3.4 |
